# Measured values from patent US20150183835A1.
# Experiments:
# [1] = molecular target: HIV-1 SF162 gp120 (wild type, unmodified) (HIV-1 strain SF162) (UniProt P19550); assay: SPR BIAcore 3000, b12 amine-coupled on CM5, gp120 as analyte, 25 C, 1:1 Langmuir fit
# [2] = molecular target: disulfide-stabilized SF162 L1-SS-L2 gp120 (V59C & S109C) (HIV-1 strain SF162) (UniProt P19550); assay: SPR BIAcore 3000, b12 amine-coupled on CM5, gp120 L1-SS-L2 as analyte, 25 C, 1:1 Langmuir fit
# [3] = molecular target: disulfide-stabilized SF162 L1-SS-L2 gp120 (V59C & S109C) (HIV-1 strain SF162) (UniProt P19550); assay: SPR BIAcore 3000, b12 immobilized; Kd compared with wild-type gp120
substance,measurement,setting,value
mAb b12 (antibody),Kd,[1],44.8 nM
same,koff,[1],0.00712 s⁻¹
same,kon,[1],165000 M⁻¹ s⁻¹
same,Kd,[2],304 nM
same,koff,[2],0.00885 s⁻¹
same,kon,[2],29100 M⁻¹ s⁻¹
same,fold difference in Kd against wild-type gp120,[3],< 7 fold
